The target of assay [1] is T1, Cynomolgus Factor P (cynomolgus).
T1 construct: Purified from cynomolgus serum for SET/Biacore; Factor P of cynomolgus serum in the functional assays; also called Cyno Factor P; cyno FP
The assay is described as follows: SET, solution equilibrium titration. As to the method:
(§1) In SET, a constant amount of antibody is incubated with different concentrations of antigen until equilibrium is reached. The concentration of free antibody in the equilibrated solution is determined by applying the solution on an antigen coated MSD™ plate (Meso Scale Discovery™) followed by incubation with an ECL-labeled secondary antibody and measurement of signal intensity. At low antigen concentrations, a strong signal is achieved (high concentration of free antibody which binds to the antigen on the plate) whereas for high antigen concentration, the antibody is completely antigen-captured, resulting in a low signal. If a sufficient number of antigen concentrations in a matching range are available, the titration curve allows for a reasonable determination of the affinity, using the appropriate fit model. […] The constant concentration of antibody applied in the assay should be in the range of, or below, the KD (Table 4).
(§2) Human Factor P (Complement Technology cat#: A139) and Cyno Factor P purified from cyno serum (protocol adapted from Nakano, et al., (1986) J Immunol Methods 90:77-83) were coated on standard binding MSD plates (Meso-Scale Discovery, 384-well: MSD cat#: L21XA, 96-well: MSD cat#: L15XA) at 0.2-0.3 μg/ml in 25 μl PBS and incubated overnight at 4° C. Factor P inhibitors were diluted to a fixed concentration (1 pM or 10 pM) in incubation buffer (PBS with 2% BSA (Sigma cat#: A4503) and 1% Tween20 and 1% Triton-X (Sigma cat#: 234729)), and added to a serial dilution of Factor P (human or cyno) in incubation buffer. Samples were allowed to reach equilibrium by incubation at RT overnight. Plates were washed 3× in wash buffer (PBS with 0.05% Tween20), and blocked with 100 μl incubation buffer at RT for 2 hrs. Plates were washed 3× in wash buffer. Sample containing Factor P inhibitors and Factor P titration were added to the plate (25 μl), and incubated at RT for 15 min. Plates were washed 3× in wash buffer. 25 μl detection antibody was added (Anti-Human (Goat) Sulfo-TAG, 1:1000 in incubation buffer, MSD cat#: R32AJ-1), and incubated at RT for 60 min. Plates were washed 3× in wash buffer, and 50 μl of 1×MSD Read buffer T was added (with surfactant, MSD cat#: R92TC-1). Plates were read on a MSD Spector Imager 6000.

Assay [2] deals with T2, Human Factor P (human, UniProt P27918 29-469).
T2 construct: Bought protein (Complement Technology cat# A139) in SET and Biacore; Factor P of human serum in the functional assays; also called FP; human FP
Description: SET, solution equilibrium titration. As to the method:
as §1, §2

Assay [3] deals with T1, Cynomolgus Factor P. Description: cell-based or functional assay.
For assay [4], the target named is T2, Human Factor P. Description: cell-based or functional assay.
The target of assay [5] is T1, Cynomolgus Factor P. Description: Biacore SPR, captured Factor P. A general note: Surface plasmon resonance follows binding to a sensor surface in real time, without labels.
Assay [6] concerns the target T2, Human Factor P. Description: Biacore SPR, captured Factor P.

T2 sequence (P27918 29-469 limits assumed): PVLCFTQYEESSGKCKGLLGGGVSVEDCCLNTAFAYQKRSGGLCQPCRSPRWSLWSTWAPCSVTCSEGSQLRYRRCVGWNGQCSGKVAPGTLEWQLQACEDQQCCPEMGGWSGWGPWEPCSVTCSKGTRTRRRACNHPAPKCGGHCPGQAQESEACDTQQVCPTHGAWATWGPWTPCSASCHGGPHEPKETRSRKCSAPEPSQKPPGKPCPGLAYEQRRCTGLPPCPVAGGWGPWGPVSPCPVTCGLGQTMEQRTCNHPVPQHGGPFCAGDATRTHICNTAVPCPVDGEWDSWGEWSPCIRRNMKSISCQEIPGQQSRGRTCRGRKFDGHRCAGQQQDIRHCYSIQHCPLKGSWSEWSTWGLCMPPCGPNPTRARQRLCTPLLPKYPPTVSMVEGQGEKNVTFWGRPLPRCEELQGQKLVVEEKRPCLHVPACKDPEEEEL

B1: NVS966 (Fab, V domains shown)
VH: EVQLVQSGAEVKKPGESLKISCKGSGYSFTNYWIGWVRQMPGKGLEWMGRIDPGESLTNYAPSFQGQVTISADKSISTAYLQWSSLKASDTAMYYCARTGVADVDMPFAHWGQGTLVTVSS
VL: SYVLTQPPSVSVAPGKTARISCSGDNLGSYYVNWYQQKPGQAPVLVIYGDSERPSGIPERFSGSNSGNTATLTISRAQAGDEADYYCGSWDITSFVFGGGTKLTVLG
notes: Disulfide-bridged Fab; also called Fab NVS966
As usually defined, the Kd is the equilibrium constant for the complex coming apart. What is called koff is the rate constant with which the complex falls apart. A high value points to fast dissociation. Usually kon stands for the rate constant with which the complex forms. Consider B1, for which the Kd with Cynomolgus Factor P [1] was found to be 0.04 nM. In addition, the dissociation constant (Kd) in the assay with Human Factor P [2] stood at 0.07 nM. In addition, in the assay with Cynomolgus Factor P [3], the “Hemolytic assay IC50 (nM), 10% serum” value is 13 nM and the “Zymosan-C3b IC50 (nM), 10% serum” value stood at 6.62 nM. In addition, in the assay with Human Factor P [4], the “Hemolytic assay IC50 (nM), 10% serum” value turned out to be 7.15 nM; the “Inhibition of C3a generation, 20% human serum” value (“Inhibition … 20% human serum” below) turned out to be 41.1 nM; the “Zymosan-C3b IC50 (nM), 10% serum” value amounted to 1.66 nM. In the assay with Cynomolgus Factor P [5], this molecule had a Kd of 0.21 nM, a koff of 0.0002 s⁻¹ and an association rate constant (kon) of 1e+06 M⁻¹ s⁻¹. Moreover, in the assay with Human Factor P [6], binding was put at a Kd of 0.16 nM, the koff stood at 0.0003 s⁻¹ and the kon was found to be 2e+06 M⁻¹ s⁻¹.

B2: NVS965-T (Fab, V domains shown)
VH: EVQLVQSGAEVKKPGSSVKVSCKASGGTFTSYAISWVRQAPGQGLEWMGRIIPIFGTANYAQKFQGRVTITADESTSTAYMELSSLRSEDTAVYYCARHGGYSFDSWGQGTLVTVSS
VL: SYVLTQPPSVSVAPGKTARISCSGDNLGSKYVDWYQQKPGQAPVLVIYSDNNRPSGIPERFSGSNSGNTATLTISGTQAMDEADYYCATYDSSPRTEVFGGGTKLTVLG
notes: NVS965 with heavy chain N30 replaced with threonine
As to B2, the Kd with Cynomolgus Factor P [1] is 0.044 nM. Moreover, the Kd with Human Factor P [2] was found to be 0.052 nM. Also, in the assay with Cynomolgus Factor P [3], the “Hemolytic assay IC50 (nM), 10% serum” value came to 12.5 nM; the “MAC Deposition, 20% Serum EC50” value was 11 nM; the “Zymosan-C3b IC50 (nM), 10% serum” value worked out at 1.91 nM. For the same molecule, in the assay with Human Factor P [4], the “Hemolytic assay IC50 (nM), 10% serum” value came to 7.15 nM; the “MAC Deposition, 20% Serum EC50” value was 13.8 nM; the “Zymosan-C3b IC50 (nM), 10% serum” value came to 0.77 nM. Further, in the assay with Cynomolgus Factor P [5], the Kd was 0.0746 nM, the koff is 0.000151 s⁻¹ and the kon is 2.17e+06 M⁻¹ s⁻¹. Also, in the assay with Human Factor P [6], binding was put at a Kd of 0.0514 nM, the koff came out at 0.000103 s⁻¹ and the kon worked out at 2.37e+06 M⁻¹ s⁻¹.

B3: NVS963 (Fab, V domains shown)
VH: EVQLVQSGAEVKKPGSSVKVSCKASGGTFSSYAISWVRQAPGQGLEWMGPINPYYGDAIYAQKFQGRVTITADESTSTAYMELSSLRSEDTAVYYCARYYSDYMDYWGQGTLVTVSS
VL: QSVLTQPPSVSGAPGQRVTISCTGSSSNIGAGYDVHWYQQLPGTAPKLLIHDNSHRPSGVPDRFSGSKSGTSASLAITGLQSEDEADYYCASYDESAHSVFGGGTKLTVLG
notes: Disulfide-bridged Fab; also called Fab NVS963
For the molecule B3, the Kd with Cynomolgus Factor P [1] worked out at 0.115 nM. Besides, in the assay with Human Factor P [2], the Kd came out at 0.055 nM. In addition, in the assay with Cynomolgus Factor P [3], the “Hemolytic assay IC50 (nM), 10% serum” value came out at 14.5 nM and the “Zymosan-C3b IC50 (nM), 10% serum” value came to 9.75 nM. Moreover, in the assay with Human Factor P [4], the “Hemolytic assay IC50 (nM), 10% serum” value was found to be 10.1 nM; the “Inhibition … 20% human serum” value was found to be 65.1 nM; the “Zymosan-C3b IC50 (nM), 10% serum” value is 2.34 nM. In the assay with Cynomolgus Factor P [5], this molecule gave a Kd of 0.17 nM, a koff of 0.0002 s⁻¹ and a kon of 1e+06 M⁻¹ s⁻¹. In the assay with Human Factor P [6], this molecule yielded a Kd of 0.09 nM, a koff of 0.0001 s⁻¹ and a kon of 1e+06 M⁻¹ s⁻¹.

B4: NVS964 (Fab, V domains shown)
VH: EVQLVQSGAEVKKPGASVKVSCKASGYTFTSHYMHWVRQAPGQGLEWMGKINADLGDTNYAQKFQGRVTMTRDTSISTAYMELSSLRSEDTAVYYCARDGIEHGGHYYWGYLFDIWGQGTLVTVSS
VL: SYELTQPPSVSVAPGQTARISCSGDSIREYYVHWYQQKPGQAPVLVIGDDTNRPSGIPERFSGSNSGNTATLTISGTQAEDEADYYCAAWDFSPAIVFGGGTKLTVLG
notes: Disulfide-bridged Fab; also called Fab NVS964
B4: the equilibrium dissociation constant (Kd) with Cynomolgus Factor P [1] was found to be 0.19 nM. In addition, the Kd with Human Factor P [2] is 0.02 nM. Besides, in the assay with Cynomolgus Factor P [3], the “Hemolytic assay IC50 (nM), 10% serum” value is 13.4 nM and the “Zymosan-C3b IC50 (nM), 10% serum” value worked out at 6.59 nM. In the assay with Human Factor P [4], the “Hemolytic assay IC50 (nM), 10% serum” value was 9.26 nM; the “Inhibition … 20% human serum” value is 42.2 nM; the “Zymosan-C3b IC50 (nM), 10% serum” value is 1.54 nM. In the assay with Cynomolgus Factor P [5], this molecule gave a Kd of 0.16 nM, an off-rate (koff) of 0.0002 s⁻¹ and a kon of 1e+06 M⁻¹ s⁻¹. In the assay with Human Factor P [6], this molecule yielded a Kd of 0.035 nM, a koff of 4e-05 s⁻¹ and an on-rate (kon) of 1e+06 M⁻¹ s⁻¹.

Source of the values: patent US20130295102A1 (Novartis, published 2013).
